From PMC5927468 come the findings set out here.

The target of this assay is sorting nexin 9 (SNX9) (UniProt Q9Y5X1). Put plainly: anti-eGFP nanobody pulldown, SNX9 immunoblot. The note with it: reference: Dyn1a wild type-eGFP; sites S774,S778.

Consider “dynamin-1 (Dyn1a) (from UniProt Q05193) Dyn1a S774/8A-eGFP”, for which the fold change was 3.6.
